This is an account of results in paper PMC3418412.

For assay [1], the target named is purified Hsp90-Y313E (UniProt P07900).
For assay [2], the target named is purified wild type Hsp90 (UniProt P07900).

pKd: −log10 of the molar value.

As to “purified AHA1 protein (from UniProt O95433 1-338) (natural protein)”, the pKd in assay [1] was 5.43; in assay [2] it was 4.89.

Usually pKd stands for the negative decadic logarithm of the Kd, by convention in mol/L. A high value points to a small Kd.
